Residue numbers refer to the chain shown, from its start.

For series [1], the target named is T1, Cdc13-OB234 (Saccharomyces cerevisiae, UniProt P32797 341-924).
T1 sequence: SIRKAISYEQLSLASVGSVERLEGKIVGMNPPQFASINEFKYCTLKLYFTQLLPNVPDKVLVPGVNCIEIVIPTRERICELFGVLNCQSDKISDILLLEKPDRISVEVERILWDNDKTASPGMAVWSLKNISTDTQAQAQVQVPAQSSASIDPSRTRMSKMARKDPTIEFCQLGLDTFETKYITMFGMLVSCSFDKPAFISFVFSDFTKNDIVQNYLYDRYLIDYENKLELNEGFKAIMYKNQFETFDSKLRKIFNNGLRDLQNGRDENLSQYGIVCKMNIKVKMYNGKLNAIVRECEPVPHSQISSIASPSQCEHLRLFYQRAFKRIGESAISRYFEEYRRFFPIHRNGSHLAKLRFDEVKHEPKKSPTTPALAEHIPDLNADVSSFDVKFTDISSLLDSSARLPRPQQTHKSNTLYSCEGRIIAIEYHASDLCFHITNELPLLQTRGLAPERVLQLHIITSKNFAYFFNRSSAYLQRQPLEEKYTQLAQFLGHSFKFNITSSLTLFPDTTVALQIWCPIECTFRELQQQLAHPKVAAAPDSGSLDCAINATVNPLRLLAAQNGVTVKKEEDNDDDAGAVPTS
Description: DNase I footprinting.

Series [2] addresses T2, Cdc13 (Saccharomyces cerevisiae, UniProt P32797 1-924).
T2 sequence: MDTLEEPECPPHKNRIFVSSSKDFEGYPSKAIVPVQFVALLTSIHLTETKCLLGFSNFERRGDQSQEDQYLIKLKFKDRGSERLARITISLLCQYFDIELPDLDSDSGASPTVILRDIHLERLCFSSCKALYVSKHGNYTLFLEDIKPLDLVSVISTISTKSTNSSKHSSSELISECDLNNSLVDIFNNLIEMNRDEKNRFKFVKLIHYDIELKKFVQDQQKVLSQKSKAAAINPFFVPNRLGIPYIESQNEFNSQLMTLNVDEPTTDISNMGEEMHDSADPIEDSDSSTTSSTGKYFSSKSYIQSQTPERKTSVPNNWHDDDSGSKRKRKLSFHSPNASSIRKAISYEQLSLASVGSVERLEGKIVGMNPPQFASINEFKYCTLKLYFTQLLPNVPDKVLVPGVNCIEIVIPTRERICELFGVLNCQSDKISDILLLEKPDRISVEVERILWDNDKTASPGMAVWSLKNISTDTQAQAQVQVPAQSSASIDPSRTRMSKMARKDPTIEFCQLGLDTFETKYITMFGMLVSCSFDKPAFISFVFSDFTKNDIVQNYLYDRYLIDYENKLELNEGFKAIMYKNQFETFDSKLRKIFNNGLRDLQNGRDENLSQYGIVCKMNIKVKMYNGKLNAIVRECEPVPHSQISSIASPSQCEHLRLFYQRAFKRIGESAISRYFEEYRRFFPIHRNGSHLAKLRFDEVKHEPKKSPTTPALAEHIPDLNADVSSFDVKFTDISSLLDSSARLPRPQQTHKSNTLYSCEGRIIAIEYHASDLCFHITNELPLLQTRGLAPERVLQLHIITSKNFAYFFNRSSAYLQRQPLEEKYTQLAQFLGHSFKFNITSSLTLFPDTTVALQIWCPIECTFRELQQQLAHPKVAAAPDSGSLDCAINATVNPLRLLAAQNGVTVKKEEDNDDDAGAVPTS
In words: DNase I footprinting.

The target of series [3] is T3, Cdc13-K504E (Saccharomyces cerevisiae, UniProt P32797 1-924, K504E).
T3 sequence: T2 sequence with K504E
Description: EMSA. In general terms: In EMSA bound probe runs differently from free probe, usually more slowly.

Series [4] deals with T2, Cdc13. In words: EMSA.
In series [5] the target is T2, Cdc13. Description: EMSA. This is another data set of the same source.
Series [6] concerns the target RPA (UniProt P22336;P26754;P26755 1-621;1-273;1-122). Description: EMSA.
For series [7], the target named is Ku (Ku70-Ku80);Cdc13 (Saccharomyces cerevisiae;Saccharomyces …, UniProt P32807;Q04437;P32797 1-602;1-629;1-924, |). In words: EMSA.
Chain of Ku (Ku70-Ku80);Cdc13 (P32807 whole entry, chain 1 of 2): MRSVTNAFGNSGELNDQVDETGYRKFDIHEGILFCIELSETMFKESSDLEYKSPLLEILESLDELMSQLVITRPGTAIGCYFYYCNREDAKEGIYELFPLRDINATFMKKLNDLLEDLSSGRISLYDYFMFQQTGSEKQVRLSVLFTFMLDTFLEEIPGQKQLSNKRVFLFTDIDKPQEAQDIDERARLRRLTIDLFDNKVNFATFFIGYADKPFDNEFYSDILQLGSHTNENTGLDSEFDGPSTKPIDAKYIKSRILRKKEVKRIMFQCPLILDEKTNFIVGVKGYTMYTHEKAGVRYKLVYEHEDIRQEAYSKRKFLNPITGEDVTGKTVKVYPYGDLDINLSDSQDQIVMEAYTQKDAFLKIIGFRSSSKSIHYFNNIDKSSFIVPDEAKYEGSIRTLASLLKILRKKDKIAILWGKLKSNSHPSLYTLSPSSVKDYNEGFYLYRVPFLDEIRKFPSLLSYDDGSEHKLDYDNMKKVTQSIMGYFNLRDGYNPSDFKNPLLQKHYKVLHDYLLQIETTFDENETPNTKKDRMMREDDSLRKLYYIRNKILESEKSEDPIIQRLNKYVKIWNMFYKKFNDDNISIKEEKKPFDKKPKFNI
Chain of Ku (Ku70-Ku80);Cdc13 (Q04437 whole entry, chain 2 of 2): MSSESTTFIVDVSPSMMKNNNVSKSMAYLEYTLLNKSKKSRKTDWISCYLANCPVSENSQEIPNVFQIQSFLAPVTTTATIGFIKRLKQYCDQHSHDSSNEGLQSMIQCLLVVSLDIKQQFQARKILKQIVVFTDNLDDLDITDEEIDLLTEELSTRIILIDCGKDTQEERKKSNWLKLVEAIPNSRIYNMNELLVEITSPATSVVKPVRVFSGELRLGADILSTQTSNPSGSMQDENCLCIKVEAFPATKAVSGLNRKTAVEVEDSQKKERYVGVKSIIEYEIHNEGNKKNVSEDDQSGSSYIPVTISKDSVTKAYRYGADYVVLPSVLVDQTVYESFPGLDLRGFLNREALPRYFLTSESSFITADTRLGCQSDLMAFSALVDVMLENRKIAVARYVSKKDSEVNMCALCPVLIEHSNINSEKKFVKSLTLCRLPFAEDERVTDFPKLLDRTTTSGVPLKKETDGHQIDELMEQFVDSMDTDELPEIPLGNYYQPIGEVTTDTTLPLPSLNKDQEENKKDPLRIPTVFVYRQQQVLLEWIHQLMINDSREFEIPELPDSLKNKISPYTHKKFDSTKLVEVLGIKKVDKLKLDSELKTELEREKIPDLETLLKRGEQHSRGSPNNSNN
Series [8] deals with the molecule itself. In words: SEC. In general terms: SEC sorts molecules by how far they enter the pores of the column.

Chain of RPA (P22336 whole entry, chain 1 of 3): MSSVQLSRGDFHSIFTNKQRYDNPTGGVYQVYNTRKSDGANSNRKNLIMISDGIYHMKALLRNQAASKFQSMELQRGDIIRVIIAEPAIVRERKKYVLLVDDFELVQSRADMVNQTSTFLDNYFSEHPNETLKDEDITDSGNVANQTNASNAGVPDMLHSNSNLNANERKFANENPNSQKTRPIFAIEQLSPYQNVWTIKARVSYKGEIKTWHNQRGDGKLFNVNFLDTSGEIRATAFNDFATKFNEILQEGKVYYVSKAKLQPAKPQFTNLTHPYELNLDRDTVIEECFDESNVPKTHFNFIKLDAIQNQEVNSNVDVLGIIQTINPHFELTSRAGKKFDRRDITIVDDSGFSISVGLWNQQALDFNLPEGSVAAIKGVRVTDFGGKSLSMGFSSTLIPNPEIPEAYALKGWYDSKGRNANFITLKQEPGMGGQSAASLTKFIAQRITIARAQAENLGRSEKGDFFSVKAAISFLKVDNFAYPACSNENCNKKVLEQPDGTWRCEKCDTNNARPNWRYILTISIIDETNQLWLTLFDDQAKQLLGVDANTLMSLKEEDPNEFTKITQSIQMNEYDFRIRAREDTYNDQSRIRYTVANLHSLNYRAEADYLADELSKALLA
Chain of RPA (P26754 whole entry, chain 2 of 3): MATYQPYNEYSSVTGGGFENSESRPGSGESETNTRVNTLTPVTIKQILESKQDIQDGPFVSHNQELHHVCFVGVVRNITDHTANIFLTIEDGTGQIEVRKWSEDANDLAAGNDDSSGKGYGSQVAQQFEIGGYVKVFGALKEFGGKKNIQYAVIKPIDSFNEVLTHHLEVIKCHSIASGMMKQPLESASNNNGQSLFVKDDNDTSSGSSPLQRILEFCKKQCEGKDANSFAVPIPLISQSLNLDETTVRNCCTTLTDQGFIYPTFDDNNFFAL
Chain of RPA (P26755 whole entry, chain 3 of 3): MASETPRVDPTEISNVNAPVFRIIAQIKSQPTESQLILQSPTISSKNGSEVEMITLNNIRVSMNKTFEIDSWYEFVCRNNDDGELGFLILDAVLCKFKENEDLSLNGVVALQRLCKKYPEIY

B1: L-Tel22 (dsDNA)
DNA 1: TTCAGACAACAGTAGACTACAAGGATGACGACAAGATTAAGCTTTCTTATGTGGGTGTGTGTGTGGGGTGGTGTGTGTGG
DNA 2: ACACCCACATAAGAAAGCTTAATCTTGTCGTCATCCTTGTAGTCTACTGTTGTCTGAA
Consider B1, for which the binding result in series [1] and in series [2] was “binds” in each case.

B2: Tel14 (dsDNA)
DNA 1: ATAATGATAAGACGTAGAGTGGGTGTGTGTGTGGGGTGGT
DNA 2: ACACCCACTCTACGTCTTATCATTAT
In general, Kd refers to the free concentration of one partner at which half of the binding sites on the other are occupied at equilibrium, for simple one-to-one binding. A low value points to tighter binding. On to B2, for which, in series [3], the binding result was “binds”. The Kd in series [4] was roughly 5 nM. In the case of GTGTGGT (ssDNA) [ssTel7], the binding result in series [5] was “no binding”.

B3: Tel7 (dsDNA)
DNA 1: ATAATGATAAGACGTAGAGTGGGTGTGTGTGTG
DNA 2: ACACCCACTCTACGTCTTATCATTAT
In the case of B3, the Kd in series [4] is roughly 20 nM.

B4: ds26 (dsDNA)
DNA 1: ATAATGATAAGACGTAGAGTGGGTGT
DNA 2: ACACCCACTCTACGTCTTATCATTAT
On to B4, for which, in series [6], the binding result is given as “no binding”. The molecule further had a Kd in series [4] of roughly 300 nM.

B5: Tel22 (dsDNA)
DNA 1: ATAATGATAAGACGTAGAGTGGGTGTGTGTGTGGGGTGGTGTGTGTGG
DNA 2: ACACCCACTCTACGTCTTATCATTAT
Take B5: the binding result in series [3] and in series [7] was “binds” each time. The same molecule registered a Kd in series [4] of less than 2.5 nM. With TGTGGGTGTGGTGTGGGTGTGG (ssDNA) [ssTel22], the binding result in series [3] is on record as “binds”.

B6: Cdc13 (recombinant full-length, Cdc13-Flag) (natural protein, S. cerevisiae, UniProt P32797 1-924, looked up)
chain: T2 sequence
What is called stoichiometry N is the number of molecules, sites or subunits per partner or assembly. On to B6, for which, in series [8], the “stoichiometry N” value came out at 2.
